From the nanobody polyreactivity screen of Harvey et al. (2022)

Assay: yeast display, Sf9 membrane polyspecificity reagent, FACS + sequencing; frameworks hold sequencing errors
Summary of the method: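 Synthetic nanobody libraries on Saccharomyces cerevisiae BJ5465 were galactose-induced for 36–48 hours, stained 1 hour at 4 °C with 10% biotinylated, detergent-solubilized Sf9 membrane reagent and enriched on streptavidin microbeads. FACS then separated cells into low and high (top ~1%) gates by anti-HA (expression) and streptavidin (reagent binding) fluorescence. Genes were colony-PCR amplified, MiSeq 2 × 250 sequenced and CDR-length filtered. A clone's polyreactivity label is that of its gate of origin.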

| Sequence | polyreactivity (PSR sort gate) |
| --- | --- |
| QVQLVESGGGLVQAGGSLRLSCAASGFTFYDKAMGWNRQAPGKERELVAAINCRSGSTYYADSVKGRFTISRDTAKNTVYLQMNSLKPEDTAVYYCASGLVFHYYAPKSYYLRYDYWGQGTQVTVSS | low polyreactivity |
| QVQLVESGGGLVQAGGSLRISCAASGSIFDTNPMGWYRQAPGKERELVAAITSSGASTYYADSVKGRFTISRDNAKNTVYLQMNSLKPEDTAVYYCAADGAVDGGYWGQGTQVTVSS | low polyreactivity |
| QVQLVESGGGLVQAGGSLRLSCAASGIIFTNNAIGWYRQAPGKERELGAAITSGGRTYYADSVKGRFTISRDNAKNTVSLQMNSLKPEDTAVYYCNARYYYGGWRVGYWGQGTQLTVSS | high polyreactivity |
| QVQLVESGGGLVQAGGRLRLSCAASGRTFGPNVMGWYRQAPGKERELVAAITSGGTTYYADSVKGRFTISRDNAKNTVYLQMTSLIPADTAVYYCAATFYPYQVHHYYYWGQGTQVTVSS | low polyreactivity |
| QVQLVESGGGLVQAGGSLRLSCAASGYIFSYNAMGWYRQAPGKERELVAAITGDSGTYYADSVKGRFTISRDNAKNTVYLQMNSLKPEDTAVYYCATDPYIFPVFYDLYWGYNYWGQGTQVTVSS | low polyreactivity |
| QVQLVESGGGLVQAGGSLRLSCAASGSTLVYNDMGWYRQAPGKERELGATITGTDSTYYADSVKGRFTISRDNAKNTVYLQMNSLKPEDTADCAADRAASRPDYDYWGQGTQVTVSS | low polyreactivity |
| QDQLVESCGALLQAGGSLRLSCAASGITIDTYFMGRYRQAPGKETELLAAISNSDGSTYYADSVKGRFTISRDNAKHTVYLPMNSLKPEDTAVYYCNAQSYYSWHLRYDYWGQGTQVTVSS | high polyreactivity |
| QVQLVESGGGLVQAGGSLRLSCAASGSTFTWNAMGWYRQAPGKERELGASISGRGGSTYYADSVKGRFTISRDNAKNTVYLQMNSLKPEDTAVYYCAARGVSYHYPSGYDYWGQGTQVTVSS | high polyreactivity |
| QVQLVESGGGLVQAGGSLRLSCAASGSTFVHYAMGWYRQAPGKERELVAAITWSGGSTYYADSVKGRFTISRDNAKNTVYLPMNSLKPEDTAVYYCAARNFGAWRWYSYGAHLGSEYWGQGTQVTVSS | low polyreactivity |
| QVQLVESGGALVQAGGSLRLSCAASGSIFRWTAMGWYRQAPGKERVLVAAISKSGASTYYADSVKGRFTISRDNAKNTVYLQMNSLKPEDTAVYYCNRVYLGYFRYDYWGQGTQVTVSS | high polyreactivity |
| QVQLVESGGGLVQAGGSLRLSCAASGSIFRYNAMGWYRQAPGKERELVAGITWGGGRTYYADSVKGRFTISRDNAKNTVYLQMNSLKPEDTAVYYCAAVIARPAVQAYLVTKYDYWGQGTQVTVSS | high polyreactivity |
| QVHLVESGGGLVQAGGSLRLSCASSGIIFKTYAMGWYRQAPGKERELVAAISSGGTTYYADSVKGRFTISRDNAKNTVYLQMNSLKPEDTAVYYCAARGYRSGGGYNYWGHGTQVTVSS | high polyreactivity |
| QVQLVESGGGLVQAGGSLRLSCAASGSIFRDNAMGWYRQAPGKERELVASIRSSGGRTYYADSVKGRFTISRDNAKNTVYLQMNSLKPEDTAVYYCARRWYPVTPYARMYYWGQGTQVTVSS | low polyreactivity |
| QVQLVESGGGLVQAGGSLRLSCAASGFTFRRYAMGWYRQAAGKERELVASNSWRGGTTYYADSVKGRFTISRDNAKNTVYLQMNSLKPDDTAVYYCARGAATPPGYYSSGQGTQVTVSS | low polyreactivity |
| QVQLVESGGGLVQAGGSLRLSCAASGSILTAYAMGWYRQAPGKERELVAASNFSGDNTYYADSEKGRFTISRDNAKNTVYLQMNSLKPEDTAVYYCNADGRYAYVWYDYWGQGTQVTVSS | low polyreactivity |
| QVQLVESGGGLVQAGGSLRLSCAASGRTLATYAMGWYRQAPGKERELVADISWRGGTTYYADSVKGRFTISRDNAKNTVYLQMNSLKPEDTAVYYCAKRFLFHSYYWGQGSQVTVSS | high polyreactivity |
| QVQLVESGGGLVQAGGSLRLSCAASGRIFRYYAMGWYGQAPGKEREFVAAINSSGVNTYYADSVKGRFTISRDNAKNTVYLQMNSLKPEDTAVYYCAFLGMDYWGQGTQVTVSS | high polyreactivity |
| QVQLVESGGGLVQAGGSLRLSCAASGGTLYLYAMGWYRQAPGKERELVAAISYNGGSTYAESVKGRFTISRDNAKNTVYLQKNSLKPEDTAVYYCAADRSPRGLGGYWGQGTQVTVSS | low polyreactivity |
| QVQLVESGGGLVQAGGSLRISCAASGRISVFNVMGWYIQAPGKERELVAAITSGGSTKYADSVKGRFTISRDNAKNTVYLQMNSLKPEDTAVYYCAALYQFHGKIWDGDYWGQGTQVTVSS | low polyreactivity |
| QVQLVESGGGLVQAGGSLRLSCAASGRIFQYYVMGWYRKAPGKERELVAAITRRGTNTYYADSVKGRFTISRDNAMNTVYLQMNSLKPEDTAVYYCAAEAQTKWWDYYYWGQGTQVTVSS | high polyreactivity |
| QVQLVESGGGLDQAGGSLRLSCAAYGRILHFYAMGWYRQAPGKERELVSAIRWSSGRTYYADSVKGRFTISRDNAKNTVYLQMNSLKPEDTAVYYCAANNGYGMDYWGQGTQVTVSS | high polyreactivity |
| QVQLVESGGGLVQAGGSLRLSCAASGIIFPRYAMGWYRQAPGKERELVAAITRRGGRTYYADSVKGRFTISRDNAKNTVYLQMNSLKPEDTAVYYCNADFISPRPPKATDEDYWGQGTQVTVSS | high polyreactivity |

| Sequence | polyreactivity (PSR sort gate) |
| --- | --- |
| QVQLVESGGGFVQAGGSLRLSCAASGFIFNRNAMGWYRQAPGKERELVAAISRSGGRTYYADSVKGRFTISRDTAKNTDYFQMNSLKPEDTAVYSCATEGYDGEFDYWGQGTQVTVSS | high polyreactivity |
| QVQLVESGGGLVQAGGSLRLSCAASGRIFYWYDMGWYRQAPGKERELVAAISTRGGSTYYADSVKGRFTISRDNAKNTVYLQMNSLKPEDTAVYYCAARANPYVLKYYYWGQGTQVTVSS | high polyreactivity |
| QVQLVESGGGLVHAGGSLRLSCAASGSTFGYYAMGWYRQAPGTERELVADINWNGGSTNYADSVKGRFTISRDTEKKTVYLQMNSLKPEDTAVYFCAKGLRPYRFYYWGQGTQVTVSS | high polyreactivity |
| QVQLVESGGGLVQAGGSLRLRCAASGGTFNVYAMGWYRQAPGKERELVARITWNGGRTSYADSVKGRFTISRDNAKNTVYLQMNSLKPEDTAVYFCAAETRYKRIYPYGRATEDYWGQGTQVTVSS | high polyreactivity |
| QVQLVESGGGLVQAGGSLRLTCADSGFIFYRYAMVWYRQAPGKERELVAAISTRGGSTFYADSVKGRFTISRDNAKNTVYLQMNSLKPEDTAVYYCATGPLRAYDYWGQGTQVTVSS | high polyreactivity |
| QVQLVESGGGLVQAGGSLRLSCAASGSTFYRNTMGWYRQAPGKERELVAAIRRSGSSTYYADSVKGRFTISRDNAKNTVYLQMNSLKPDDTAVYYCAKEGLSYRYYYCGQGTQVTVSS | high polyreactivity |
| QVQLVESGGGLVQAGGSLRLSCAASGSTFPSYAMGWYRQAPGKERELVAAINRSGGSTYYADSVKGRFTISRDNAKNTVYLQMNSLKPEYTAVYYCATGLTTGGGYYWGQGTQVTVSS | high polyreactivity |
| QVQLVESGGGLVQAGGSLRLSCAASGRIFSSYAMGWYRQAPGKERELVAAITRGGSTYYADSVKGRFTISRDNAKNTVYLQMNSLKPEDTAVYYCNAVGFYAANTFDYWGQGTQVTVSS | high polyreactivity |
| QVQLVESGGGLVQAGGRLRLSCAASGSIFITYDMGWYRQAPGKERELVATISTTGGTTYYADSVKGRFTISRDNAMNTVYLQMNSLKPEDTAVYYCAADWRYLYYALDYWGQGTQVTVSS | low polyreactivity |
| QVQLVESGGGLVQAGGSLRLSCAASGIIFVPNTMGWYRQAPGKERELVAAIRWSGGTTYYADSVKGRFTISRDNAKNTVYLQMNSLKPEDTAVYYCAARYGSRSSYLAYYYWGQGTQVTVSS | high polyreactivity |
| QVQLVESGGGLVQAGGSLRLSCAASGSTFGWYAMGWYRQAPGKERELVAAITSVGSTYYADYVKGRFTISRDNAKNTVYLQMNSLKPEDTAVYYCANRFGYGWAWFGYWGQGTQVTVSS | low polyreactivity |
| QVQLVESGGGLVQAGGSLRLSCAASGRIFYGYTMGWYRQAPGKERELVASITIRGSRTYYADSVKGRFTISRDNAKNSVYLQMNSLKPEDTAVYYCAADFVPARTVHRYDYWGQGTQVTVSS | low polyreactivity |
| QVQLVESGGGLVQAGGSLRLSCAASGMIFKYYVMGWYRQAPGKERELVAAIRWSGGITSYADSVKGRFTISRDNAKNTVYLQMNSLKPEDTAVYYCAVAHSRLRTAYTFSVQRYDYWGQGTQVTVSS | low polyreactivity |
| QVQRVESGGGLVQAGGSLRLSCADSGGTFGSYAKGCSSQAPGQDRELVDAIDYSGADTYYADSVKGRFTISRDNAKNTVYLQMNSLKREDTAVFSCNADPLPYDGFYDYDYWGQGTQVTVSS | low polyreactivity |
| QVHLVESGGGLVQAGGSLRITCAASGRIFWSYAMGWYRQAPGKEMELVAAITWSGGSTYYADSVKGRFTISRDNAKNTVYLQMIRLKPEDTAVYYCNAATGQPVGLDYWGQGTQVTVSS | low polyreactivity |
| QVQLVESGGGLVQAGGSLRLSCAASGLISWLYVMGWYRQAPGKERELVAAIRYSGGRTYYADSVKGRFTISRDNAKNTVYLQMNSLKPEDTAVYYCAAEEQVVKAHGDYWGQGTQVTVSS | low polyreactivity |
| QVQLVESGGCLVQAGGSLRLSCAASGSTLGYYVMGWYRQAPGKERELFAAITGCGSTDYADSVKGRFTISRDNAKNTVYLQMNSLIPEDTAVYYCAAERTRTGQLFWWGPIYDYWGQGTQVTVSS | low polyreactivity |
| QVQLVESGGGLVQAGGSLRLICAASGTFDHYAMGWDRQAPGKERELVAAISWSGGSTYYADSVKGRFTISRDNAKNTVYLQMNSLKPEDTAVYYCNAETDGYFESNDFDYWGQGTQVTVSS | high polyreactivity |
| QVQLVESGGGLVQAGGSLRLSCAASGSTFWGNAMGWYRQAPGKERELVAAISNGGSTNYADSVKGRFTISRDNAKNTVYLQMNSLKPEDTAVYYCAADGHTSNGVSLHGYWGQGTQVTVSS | low polyreactivity |
| QVQLVESGGGLVQAGGSLRLSCAASGSTFFYNAMGWYRQAPGKERESTNYADSVKGRFTISRDNAKNTVYLQMNSLKPEDTAVYYSAKDRSYYRKFSSYRLHDYWGHGTQVTVSS | low polyreactivity |
| QVQLVESGGGLVQAGGTLRLSCAATGRTFAPNSMGWYRHAPGKERELFAAISWSGTSTYYADSVKGRFTISRDNAKNTVYLQMNSLKPEDTAVYYCAADLEGRVGSPWTYDYWGQGTQVTVSS | low polyreactivity |
